Our source for the increase in the population participating in FRET with mavacamten (head-head interaction within the dimer), fraction participating in FRET after glutaraldehyde (head-head interaction within the dimer) and percent of molecules in the interacting-heads motif (head-head interaction within the dimer) values is PMC8479475.

In experiment [1] the target is Labeled bovine β-cardiac heavy meromyosin (HMM) carrying EDANS- and dabcyl-labeled regulatory light chain (bovine) (UniProt P85100). Kind of experiment: FRET or BRET; time-resolved FRET as in a2 with mavacamten (dose-response) and 2 mM magnesium ATP, incubated 10 min; 5 μM labeled HMM; head-head interaction within the molecule.
Experiment [2] shares this target. Kind of experiment: FRET or BRET + cross-linking; time-resolved FRET as in a2 after cross-linking: 5 μM HMM in 10 mM MOPS, 30 mM KCl, 2 mM MgATP, 1 mM DTT, pH 7.5, 0.1% glutaraldehyde for 1 min, quenched with 100 mM Tris pH 7.5; head-head interaction within the molecule. On the technique in general: Bioluminescence resonance energy transfer reports proximity on the nanometre scale.

Experiment [3] has the same target. Kind of experiment: FRET or BRET; time-resolved FRET between EDANS- and dabcyl-labeled RLC (1:3) on the two heads of one HMM dimer; head-head interaction within the molecule (interacting-heads motif), not between HMM molecules; in solution, no cross-linker.

Turning to “Labeled bovine β-cardiac heavy meromyosin (HMM) carrying EDANS- and dabcyl-labeled regulatory light chain (from UniProt P85100 1-199; Q3SZE5 1-166) (complex)”, the increase in the population participating in FRET with mavacamten (head-head interaction within the dimer) in experiment [1] amounted to 4%. Further, the fraction participating in FRET after glutaraldehyde (head-head interaction within the dimer) in experiment [2] stood at 74%. In experiment [3], this substance registered a percent of molecules in the interacting-heads motif (head-head interaction within the dimer) of 43%.
